Values belong to the binder of their own block, whether it stands above or below them.
Columns and labels:
Experiment in all cases: holdup assay
Set-up in all cases: key: below the threshold = too weak to quantify, mostly under pKd 3.1 to 4
Inadl_5, Q8NI35 = target: Inadl_5, Q8NI35
MAGI2_6, Q86UL8 = target: MAGI2_6, Q86UL8
DLG4_3, P78352 = target: DLG4_3, P78352
SNTA1, Q13424 = target: T1, SNTA1, Q13424
T1 sequence (Q13424 82-180, limits assumed, looked up): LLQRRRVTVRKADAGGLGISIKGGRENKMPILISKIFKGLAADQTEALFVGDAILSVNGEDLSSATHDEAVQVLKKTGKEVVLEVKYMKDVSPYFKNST

APBA3_1, O96018 = target: T2, APBA3_1, O96018
T2 sequence (O96018 389-490, limits assumed, looked up): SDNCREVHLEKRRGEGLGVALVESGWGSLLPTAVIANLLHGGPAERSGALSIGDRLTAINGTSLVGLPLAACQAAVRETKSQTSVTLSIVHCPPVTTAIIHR

GRIP1_2, Q9Y3R0 = target: T3, GRIP1_2, Q9Y3R0
T3 sequence (Q9Y3R0 145-248, limits assumed, looked up): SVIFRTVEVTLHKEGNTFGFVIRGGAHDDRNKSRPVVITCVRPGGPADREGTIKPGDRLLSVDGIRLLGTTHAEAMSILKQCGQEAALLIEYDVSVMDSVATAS

DFNB31_1, Q9P202 = target: T4, DFNB31_1, Q9P202
T4 sequence (Q9P202 135-233, limits assumed, looked up): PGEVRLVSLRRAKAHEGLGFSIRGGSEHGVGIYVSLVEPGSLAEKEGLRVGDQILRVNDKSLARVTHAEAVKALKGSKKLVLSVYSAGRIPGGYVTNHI

LNX1_3, Q8TBB1 = target: LNX1_3, Q8TBB1
Sequence of LNX1_3, Q8TBB1 (Q8TBB1 500-596): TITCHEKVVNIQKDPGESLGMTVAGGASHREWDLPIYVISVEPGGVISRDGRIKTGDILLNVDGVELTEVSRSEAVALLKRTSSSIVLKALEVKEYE

SIPA1L2, Q9P2F8 = target: T5, SIPA1L2, Q9P2F8
T5 sequence (Q9P2F8 945-1036, limits assumed, looked up): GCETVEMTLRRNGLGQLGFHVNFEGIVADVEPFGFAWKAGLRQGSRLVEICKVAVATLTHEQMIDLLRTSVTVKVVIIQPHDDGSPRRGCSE

HTRA3, P83110 = target: T6, HTRA3, P83110
T6 sequence (P83110 354-453, limits assumed, looked up): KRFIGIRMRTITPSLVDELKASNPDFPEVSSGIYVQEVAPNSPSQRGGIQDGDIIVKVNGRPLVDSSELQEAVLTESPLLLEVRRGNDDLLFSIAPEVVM

FRMPD2_3, Q68DX3 = target: FRMPD2_3, Q68DX3
Sequence of FRMPD2_3, Q68DX3 (Q68DX3 1073-1166): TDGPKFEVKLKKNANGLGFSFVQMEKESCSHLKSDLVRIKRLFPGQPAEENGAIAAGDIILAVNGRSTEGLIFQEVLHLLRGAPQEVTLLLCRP

NHERF4_2, Q86UT5 = target: NHERF4_2, Q86UT5
Sequence of NHERF4_2, Q86UT5 (Q86UT5 220-308): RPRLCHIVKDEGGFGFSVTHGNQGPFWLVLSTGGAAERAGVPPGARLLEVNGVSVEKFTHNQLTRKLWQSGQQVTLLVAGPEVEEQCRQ

DLG1_2, Q12959 = target: DLG1_2, Q12959
Sequence of DLG1_2, Q12959 (Q12959 314-412): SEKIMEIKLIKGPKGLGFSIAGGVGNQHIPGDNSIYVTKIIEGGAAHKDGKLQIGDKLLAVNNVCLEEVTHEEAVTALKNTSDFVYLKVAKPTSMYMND

MAGI2_4, Q86UL8 = target: MAGI2_4, Q86UL8
Sequence of MAGI2_4, Q86UL8 (Q86UL8 772-865): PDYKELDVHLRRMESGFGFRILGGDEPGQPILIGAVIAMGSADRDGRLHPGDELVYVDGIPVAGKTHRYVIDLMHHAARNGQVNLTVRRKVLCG

FRMPD2_2, Q68DX3 = target: FRMPD2_2, Q68DX3
Sequence of FRMPD2_2, Q68DX3 (Q68DX3 944-1038): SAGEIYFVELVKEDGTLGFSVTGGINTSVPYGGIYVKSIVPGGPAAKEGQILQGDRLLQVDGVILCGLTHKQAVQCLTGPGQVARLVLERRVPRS

PDZD2_2, O15018 = target: T7, PDZD2_2, O15018
T7 sequence (O15018 329-429, limits assumed, looked up): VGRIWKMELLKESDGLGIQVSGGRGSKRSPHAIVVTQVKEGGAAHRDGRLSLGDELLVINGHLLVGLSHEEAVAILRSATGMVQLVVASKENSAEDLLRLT

Inadl_8, Q8NI35 = target: Inadl_8, Q8NI35
Sequence of Inadl_8, Q8NI35 (Q8NI35 1425-1530): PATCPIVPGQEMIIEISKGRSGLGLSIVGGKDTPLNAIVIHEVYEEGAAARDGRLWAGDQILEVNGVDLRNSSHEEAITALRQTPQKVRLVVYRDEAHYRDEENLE

LRRC7, Q96NW7 = target: T8, LRRC7, Q96NW7
T8 sequence (Q96NW7 1440-1537, limits assumed, looked up): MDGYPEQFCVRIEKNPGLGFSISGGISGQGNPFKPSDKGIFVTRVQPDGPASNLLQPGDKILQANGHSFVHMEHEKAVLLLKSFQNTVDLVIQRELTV

APBA2_2, Q99767 = target: T9, APBA2_2, Q99767
T9 sequence (Q99767 654-744, limits assumed, looked up): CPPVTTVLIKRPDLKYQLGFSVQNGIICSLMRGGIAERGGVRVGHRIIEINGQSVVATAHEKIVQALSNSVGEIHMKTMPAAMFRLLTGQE

MPP6, Q9NZW5 = target: T10, MPP6, Q9NZW5
T10 sequence (Q9NZW5 125-219, limits assumed, looked up): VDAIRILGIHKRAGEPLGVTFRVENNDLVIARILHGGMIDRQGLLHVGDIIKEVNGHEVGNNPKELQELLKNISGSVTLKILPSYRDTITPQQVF

PTPN13_1, Q12923 = target: T11, PTPN13_1, Q12923
T11 sequence (Q12923 1088-1188, limits assumed, looked up): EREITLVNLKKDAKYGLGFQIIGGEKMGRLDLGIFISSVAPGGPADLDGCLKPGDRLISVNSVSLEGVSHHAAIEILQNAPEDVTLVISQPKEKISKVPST

NHERF3_1, Q5T2W1 = target: T12, NHERF3_1, Q5T2W1
T12 sequence (Q5T2W1 4-100, limits assumed, looked up): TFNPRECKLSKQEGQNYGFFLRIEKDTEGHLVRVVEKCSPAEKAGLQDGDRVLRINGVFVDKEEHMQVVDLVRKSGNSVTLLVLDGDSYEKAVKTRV

SNTG2, Q9NY99 = target: T13, SNTG2, Q9NY99
T13 sequence (Q9NY99 68-166, limits assumed, looked up): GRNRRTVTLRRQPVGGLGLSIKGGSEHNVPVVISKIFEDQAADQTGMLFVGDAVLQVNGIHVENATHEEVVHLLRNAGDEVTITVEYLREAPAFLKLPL

GRASP, Q7Z6J2 = target: GRASP, Q7Z6J2
Sequence of GRASP, Q7Z6J2 (Q7Z6J2 96-193): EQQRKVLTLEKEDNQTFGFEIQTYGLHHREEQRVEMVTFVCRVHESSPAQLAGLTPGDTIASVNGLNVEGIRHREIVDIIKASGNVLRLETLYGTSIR

SNX27, Q96L92 = target: SNX27, Q96L92
[1] = plain residues with an end cap or a label only (N-terminal biotin on a linker: ahx)
[2] = plain residues with an end cap or a label only (N-terminal biotin on a linker: ttds)

Sequence of Inadl_5, Q8NI35 (Q8NI35 673-780): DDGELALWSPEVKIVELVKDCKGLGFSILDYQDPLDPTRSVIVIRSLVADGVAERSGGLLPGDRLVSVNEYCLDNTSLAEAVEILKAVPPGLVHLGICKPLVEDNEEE
Sequence of DLG4_3, P78352 (P78352 306-403): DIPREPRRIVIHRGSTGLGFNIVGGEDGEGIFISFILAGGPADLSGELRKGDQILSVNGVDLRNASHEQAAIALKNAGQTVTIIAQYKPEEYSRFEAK
Sequence of MAGI2_6, Q86UL8 (Q86UL8 1141-1229): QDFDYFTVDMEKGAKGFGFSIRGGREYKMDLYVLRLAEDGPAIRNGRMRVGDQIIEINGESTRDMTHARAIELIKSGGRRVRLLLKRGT

pKd (Inadl_5, Q8NI35; [1]): below the threshold | pKd (MAGI2_6, Q86UL8; [1]): 3.6 | pKd (DLG4_3, P78352; [1]): below the threshold | pKd (SNTA1, Q13424; [1]): 3.76 | pKd (APBA3_1, O96018; [1]): below the threshold | pKd (GRIP1_2, Q9Y3R0; [1]): below the threshold | pKd (DFNB31_1, Q9P202; [1]): below the threshold | pKd (LNX1_3, Q8TBB1; [1]): below the threshold | pKd (SIPA1L2, Q9P2F8; [1]): below the threshold | pKd (HTRA3, P83110; [1]): below the threshold | pKd (FRMPD2_3, Q68DX3; [1]): below the threshold | pKd (NHERF4_2, Q86UT5; [1]): below the threshold | pKd (DLG1_2, Q12959; [1]): 4.19 | pKd (MAGI2_4, Q86UL8; [1]): 4.56 | pKd (FRMPD2_2, Q68DX3; [1]): 3.73 | pKd (PDZD2_2, O15018; [1]): 3.55 | pKd (Inadl_8, Q8NI35; [1]): 4.3 | pKd (LRRC7, Q96NW7; [1]): below the threshold | pKd (APBA2_2, Q99767; [1]): below the threshold | pKd (MPP6, Q9NZW5; [1]): below the threshold | pKd (PTPN13_1, Q12923; [1]): below the threshold | pKd (NHERF3_1, Q5T2W1; [1]): below the threshold | pKd (SNTG2, Q9NY99; [1]): 3.81 | pKd (GRASP, Q7Z6J2; [1]): 4.15 | pKd (SNX27, Q96L92; [1]): 4.49
Binder: YNSFLSVTTV [PDZRN3, Q9UPQ7]

pKd (Inadl_5, Q8NI35; [2]): below the threshold | pKd (MAGI2_6, Q86UL8; [2]): below the threshold | pKd (DLG4_3, P78352; [2]): 4.39 | pKd (SNTA1, Q13424; [2]): 4.36 | pKd (APBA3_1, O96018; [2]): below the threshold | pKd (GRIP1_2, Q9Y3R0; [2]): below the threshold | pKd (DFNB31_1, Q9P202; [2]): below the threshold | pKd (LNX1_3, Q8TBB1; [2]): below the threshold | pKd (SIPA1L2, Q9P2F8; [2]): below the threshold | pKd (HTRA3, P83110; [2]): below the threshold | pKd (FRMPD2_3, Q68DX3; [2]): below the threshold | pKd (NHERF4_2, Q86UT5; [2]): below the threshold | pKd (DLG1_2, Q12959; [2]): 5.55 | pKd (MAGI2_4, Q86UL8; [2]): 4.45 | pKd (FRMPD2_2, Q68DX3; [2]): below the threshold | pKd (PDZD2_2, O15018; [2]): 3.65 | pKd (Inadl_8, Q8NI35; [2]): below the threshold | pKd (LRRC7, Q96NW7; [2]): below the threshold | pKd (APBA2_2, Q99767; [2]): below the threshold | pKd (MPP6, Q9NZW5; [2]): below the threshold | pKd (PTPN13_1, Q12923; [2]): below the threshold | pKd (NHERF3_1, Q5T2W1; [2]): below the threshold | pKd (SNTG2, Q9NY99; [2]): 3.99 | pKd (GRASP, Q7Z6J2; [2]): 3.51 | pKd (SNX27, Q96L92; [2]): 5.03
Binder: KLVIKTETTV [RASSF6, Q6ZTQ3]

— publication PMC9482650, “Quantitative fragmentomics allow affinity mapping of interactomes” (Nature Communications, 2022)
